Data on one molecule can be found in PMC5171940, “Structure of Crenezumab Complex with Aβ Shows Loss of β-Hairpin” (Scientific Reports, 2016).

Where no end group is shown, it is not given here.

For the assay, the target named is T1, Aβ monomers on the SPR chip: biotinylated Aβ 11–28 (Homo sapiens (from His13), UniProt P05067, also: biotin, position not given here).
T1 construct: amyloid-β peptide, residues 11-28; the methods name only 11–28; also called monomer Aβ chips
T1 chain: EVHHQKLVFFAEDVGSNK
In words: SPR; BIAcore T200, single-cycle kinetics; biotinylated Aβ (11–28 or oligomeric 1–42) captured on streptavidin-coupled CM5 chip (100–200 RU); antibody as analyte 0.8–500 nM in HBS-P pH 7.4, 0.15 M NaCl; one-to-one Langmuir model. To be noted: both partners purified.

B1: Crenezumab, fully humanized anti-Aβ monoclonal IgG4 (antibody, V domains shown)
VH: EVQLVESGGGLVQPGGSLRLSCAASGFTFSSYGMSWVRQAPGKGLELVASINSNGGSTYYPDSVKGRFTISRDNAKNSLYLQMNSLRAEDTAVYYCASGDYWGQGTTVTVSS
VL: DIVMTQSPLSLPVTPGEPASISCRSSQSLVYSNGDTYLHWYLQKPGQSPQLLIYKVSNRFSGVPDRFSGSGSGTDFTLKISRVEAEDVGVYYCSQSTHVPWTFGQGTKVEIK
notes: crenezumab VH: as the VH of the heavy chain of m1 (PDB 5KNA / 5KMV) but without the T108L change; IgG4 heavy chain constant region; as the light chain of m1 (unaltered crenezumab light chain); IgG4; also called full-length IgG4; copies: 2 + 2
Consider B1, for which the Kd (usually a measure of binding affinity in units of concentration) was in the range of 3 to 5 nM.
